Data from article PMC8528806, “Enzyme promiscuity in natural environments: alkaline phosphatase in the ocean” (The ISME Journal, 2021).

Columns and labels:
[1] = target: T1, PhoA (APase; MADE1013045) (Alteromonas mediterranea, UniProt F2G8N3); assay: p-nitrophenol release, absorbance […] nm, Michaelis-Menten fit; type: biochemical; conditions: read-out: KM (μmol l^-1); 100 mM Tris pH 8.2, 24 °C, 100 µM MgCl2; 10 nM enzyme
T1 construct: gene MADE_1013045; full-length 1467-bp synthetic gene, pETM-14, N-terminal His6-PreScission 3C, tag cleaved, expressed in E. coli BL21(DE3)
T1 sequence (F2G8N3 1-488): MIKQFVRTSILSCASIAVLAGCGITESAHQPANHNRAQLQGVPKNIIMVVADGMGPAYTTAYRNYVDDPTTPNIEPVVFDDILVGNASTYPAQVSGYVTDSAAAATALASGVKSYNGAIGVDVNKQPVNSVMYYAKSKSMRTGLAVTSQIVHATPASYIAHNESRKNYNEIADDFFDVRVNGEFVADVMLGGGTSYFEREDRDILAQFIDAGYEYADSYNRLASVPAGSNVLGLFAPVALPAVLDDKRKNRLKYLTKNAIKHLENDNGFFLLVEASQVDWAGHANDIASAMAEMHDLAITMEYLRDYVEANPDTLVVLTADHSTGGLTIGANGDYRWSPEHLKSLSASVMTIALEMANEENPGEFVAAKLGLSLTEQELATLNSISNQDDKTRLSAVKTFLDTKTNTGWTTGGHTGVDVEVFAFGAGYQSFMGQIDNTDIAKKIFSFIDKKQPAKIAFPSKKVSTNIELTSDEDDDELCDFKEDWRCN

purified protein [2] = substrate: O=[N+]([O-])c1ccc(OP(=O)(O)O)cc1; assay: purified protein; type: biochemical, Alteromonas mediterranea; conditions: 100 mM Tris pH 8.2, 24 °C, 100 µM MgCl2, 1 nM enzyme, text rounds KM to 90 µM
purified protein [3] = substrate: O=[N+]([O-])c1ccc(OP(=O)(O)Oc2ccc([N+](=O)[O-])cc2)cc1; assay: purified protein; type: biochemical, Alteromonas mediterranea; conditions: 100 mM Tris pH 8.2, 24 °C, 100 µM MgCl2, 10 nM enzyme

## COP(=O)(OC)Oc1ccc([N+](=O)[O-])cc1 [Paraoxon-methyl]
[1]
  Km: 0.015 µM

B1: PhoA (APase; MADE1013045) (Alteromonas mediterranea DE) (protein)
chain: T1 sequence (F2G8N3 1-488)
notes: full-length 1467-bp synthetic gene, pETM-14, N-terminal His6-PreScission 3C, tag cleaved, expressed in E. coli BL21(DE3)
Purified protein [2]
  Km: 94 ± 35 µM
  kcat: 0.5 ± 0.03 s⁻¹
  kcat/Km: 4800 ± 800 M⁻¹ s⁻¹
Purified protein [3]
  Km: 0.3 ± 0.1 µM
  kcat: 0.017 ± 0.001 s⁻¹
  kcat/Km: 55000 ± 8000 M⁻¹ s⁻¹
